Molecular target: Influenza B hemagglutinin (HA) from B/Florida/4/2006 (Influenza B virus, strain …, UniProt P03463 16-583)

B1: mAb35490 (antibody, human IgG1, kappa, V domains shown)
VH: EVQLVESGGDLVQPGGSLRLSCAASGFTVSSNYMSWVRQVPGKGLDWVSVTYSGGNTYYADSVKGRFTISRHNSKNTLYLQMNSLRIEDTAVYYCATVPSFHGMDVWGQGTTVTVSS
VL: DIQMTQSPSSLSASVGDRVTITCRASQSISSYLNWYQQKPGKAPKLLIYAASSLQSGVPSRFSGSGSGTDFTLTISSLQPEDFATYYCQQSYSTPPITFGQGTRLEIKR
  EC50: 0.761 nM

Source: patent US20240083983A1 (Regeneron, published 2024)
